Data as given in patent US20250283117, “RNA-GUIDED NUCLEASES AND ACTIVE FRAGMENTS AND VARIANTS THEREOF AND METHODS OF USE” (Life Edit Therapeutics, Inc., published 2025).

The sequences below were run on T1, APG05459.1 (Enterococcus sp.) (assay: cleavage_in_vitro). Conditions: not given.
T1 sequence: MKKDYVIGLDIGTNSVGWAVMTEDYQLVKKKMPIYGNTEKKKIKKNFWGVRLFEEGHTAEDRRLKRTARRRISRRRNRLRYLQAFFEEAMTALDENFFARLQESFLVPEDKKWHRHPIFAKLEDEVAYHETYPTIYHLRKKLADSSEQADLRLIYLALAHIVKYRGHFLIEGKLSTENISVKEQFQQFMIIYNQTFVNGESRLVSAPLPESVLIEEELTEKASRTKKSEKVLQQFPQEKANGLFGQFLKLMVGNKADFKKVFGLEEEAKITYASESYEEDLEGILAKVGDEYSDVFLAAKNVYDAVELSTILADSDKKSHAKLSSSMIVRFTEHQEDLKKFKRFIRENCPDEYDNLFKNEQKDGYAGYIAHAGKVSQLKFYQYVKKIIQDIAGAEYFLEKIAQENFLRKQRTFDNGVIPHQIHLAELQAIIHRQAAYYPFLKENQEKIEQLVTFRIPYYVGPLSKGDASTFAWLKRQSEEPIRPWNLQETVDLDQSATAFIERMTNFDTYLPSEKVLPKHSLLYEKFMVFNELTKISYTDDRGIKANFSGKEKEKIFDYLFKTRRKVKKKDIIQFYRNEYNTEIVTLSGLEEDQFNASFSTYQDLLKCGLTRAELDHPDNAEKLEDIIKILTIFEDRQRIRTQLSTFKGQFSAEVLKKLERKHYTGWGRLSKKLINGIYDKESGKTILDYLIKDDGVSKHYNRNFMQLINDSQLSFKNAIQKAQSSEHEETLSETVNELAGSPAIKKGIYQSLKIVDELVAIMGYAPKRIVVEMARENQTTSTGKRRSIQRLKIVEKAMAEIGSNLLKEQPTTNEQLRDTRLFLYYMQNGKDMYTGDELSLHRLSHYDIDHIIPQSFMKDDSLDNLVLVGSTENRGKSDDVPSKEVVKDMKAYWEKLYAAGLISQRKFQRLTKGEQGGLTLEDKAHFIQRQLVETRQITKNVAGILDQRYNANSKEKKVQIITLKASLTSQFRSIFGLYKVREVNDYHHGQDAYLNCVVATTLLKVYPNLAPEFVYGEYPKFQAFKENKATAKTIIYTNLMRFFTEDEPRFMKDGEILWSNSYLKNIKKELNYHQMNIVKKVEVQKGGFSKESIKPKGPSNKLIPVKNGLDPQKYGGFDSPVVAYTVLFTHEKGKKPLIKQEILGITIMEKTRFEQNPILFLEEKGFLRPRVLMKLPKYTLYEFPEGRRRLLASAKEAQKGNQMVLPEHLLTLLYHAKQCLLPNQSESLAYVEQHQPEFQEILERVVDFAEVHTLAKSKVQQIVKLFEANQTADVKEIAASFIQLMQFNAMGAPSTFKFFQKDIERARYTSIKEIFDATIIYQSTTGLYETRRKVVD
“GAGCGGACAGCAGCUUCCUAUAUCUCGUACNNNNNNNNNNNNNNNNNNNNNNNNNGUUUUAGAGUCAUGUUAAAGAACAUAGCAAGUUAAAAUAAGGUUUUAACCGUAAUCAACUGUAAAGUGGCGCUGUUUCGGCGCUUUUUUUGUUU / GAGCGGACAGCAGCTTCCTAAATCTCGTAC / GTACGAGATTTAGGAAGCTGCTGTCCGCTC [Sequence 1 sgRNA for APG05459.1 ; target mismatch 10]” showed an activity of 52 % cleaved. In the case of “GAGCGGACAGCAGCUUCCUAUAUCUCGUACNNNNNNNNNNNNNNNNNNNNNNNNNGUUUUAGAGUCAUGUUAAAGAACAUAGCAAGUUAAAAUAAGGUUUUAACCGUAAUCAACUGUAAAGUGGCGCUGUUUCGGCGCUUUUUUUGUUU / GAGCGGACAGCAGCTTCCTATATCTGGTAC / GTACCAGATATAGGAAGCTGCTGTCCGCTC [Sequence 1 sgRNA for APG05459.1 ; target mismatch 5]”, the activity is reported as 0 % cleaved. In the case of “GAGCGGACAGCAGCUUCCUAUAUCUCGUACNNNNNNNNNNNNNNNNNNNNNNNNNGUUUUAGAGUCAUGUUAAAGAACAUAGCAAGUUAAAAUAAGGUUUUAACCGUAAUCAACUGUAAAGUGGCGCUGUUUCGGCGCUUUUUUUGUUU / GAGCGGACAGCAGCTTCCTATAACTCGTAC / GTACGAGTTATAGGAAGCTGCTGTCCGCTC [Sequence 1 sgRNA for APG05459.1 ; target mismatch 8]”, the activity is reported as 51 % cleaved. “GAGCGGACAGCAGCUUCCUAUAUCUCGUACNNNNNNNNNNNNNNNNNNNNNNNNNGUUUUAGAGUCAUGUUAAAGAACAUAGCAAGUUAAAAUAAGGUUUUAACCGUAAUCAACUGUAAAGUGGCGCUGUUUCGGCGCUUUUUUUGUUU / GAGCGGACAGCAGCTTCCTATATCTCGTAG / CTACGAGATATAGGAAGCTGCTGTCCGCTC [Sequence 1 sgRNA for APG05459.1 ; target mismatch 1]” gave an activity of 0 % cleaved. “GAGCGGACAGCAGCUUCCUAUAUCUCGUACNNNNNNNNNNNNNNNNNNNNNNNNNGUUUUAGAGUCAUGUUAAAGAACAUAGCAAGUUAAAAUAAGGUUUUAACCGUAAUCAACUGUAAAGUGGCGCUGUUUCGGCGCUUUUUUUGUUU / GAGCGGACAGCACCTTCCTATATCTCGTAC / GTACGAGATATAGGAAGGTGCTGTCCGCTC [Sequence 1 sgRNA for APG05459.1 ; target mismatch 18]” gave an activity of 0 % cleaved. “GAGCGGACAGCAGCUUCCUAUAUCUCGUACNNNNNNNNNNNNNNNNNNNNNNNNNGUUUUAGAGUCAUGUUAAAGAACAUAGCAAGUUAAAAUAAGGUUUUAACCGUAAUCAACUGUAAAGUGGCGCUGUUUCGGCGCUUUUUUUGUUU / GAGCGGACAGCAGCTTCCTATATCTCGTTC / GAACGAGATATAGGAAGCTGCTGTCCGCTC [Sequence 1 sgRNA for APG05459.1 ; target mismatch 2]” gave an activity of 74 % cleaved. “GAGCGGACAGCAGCUUCCUAUAUCUCGUACNNNNNNNNNNNNNNNNNNNNNNNNNGUUUUAGAGUCAUGUUAAAGAACAUAGCAAGUUAAAAUAAGGUUUUAACCGUAAUCAACUGUAAAGUGGCGCUGUUUCGGCGCUUUUUUUGUUU / GAGCGGACAGCAGCTTCGTATATCTCGTAC / GTACGAGATATACGAAGCTGCTGTCCGCTC [Sequence 1 sgRNA for APG05459.1 ; target mismatch 13]” gave an activity of 18 % cleaved. Sequence “GAGCGGACAGCAGCUUCCUAUAUCUCGUACNNNNNNNNNNNNNNNNNNNNNNNNNGUUUUAGAGUCAUGUUAAAGAACAUAGCAAGUUAAAAUAAGGUUUUAACCGUAAUCAACUGUAAAGUGGCGCUGUUUCGGCGCUUUUUUUGUUU / GAGCGGACAGCAGCTTCCTATATCTCGAAC / GTTCGAGATATAGGAAGCTGCTGTCCGCTC [Sequence 1 sgRNA for APG05459.1 ; target mismatch 3]” has an activity of 3 % cleaved. With “GAGCGGACAGCAGCUUCCUAUAUCUCGUACNNNNNNNNNNNNNNNNNNNNNNNNNGUUUUAGAGUCAUGUUAAAGAACAUAGCAAGUUAAAAUAAGGUUUUAACCGUAAUCAACUGUAAAGUGGCGCUGUUUCGGCGCUUUUUUUGUUU / GAGCGGACTGCAGCTTCCTATATCTCGTAC / GTACGAGATATAGGAAGCTGCAGTCCGCTC [Sequence 1 sgRNA for APG05459.1 ; target mismatch 22]” the activity was 48 % cleaved. With “GAGCGGACAGCAGCUUCCUAUAUCUCGUACNNNNNNNNNNNNNNNNNNNNNNNNNGUUUUAGAGUCAUGUUAAAGAACAUAGCAAGUUAAAAUAAGGUUUUAACCGUAAUCAACUGUAAAGUGGCGCUGUUUCGGCGCUUUUUUUGUUU / CAGCGGACAGCAGCTTCCTATATCTCGTAC / GTACGAGATATAGGAAGCTGCTGTCCGCTG [Sequence 1 sgRNA for APG05459.1 ; target mismatch 30]” the activity was 57 % cleaved.

Same assay, conditions: PAM SEQ 41; blunt cut 3 from PAM (Table 3)
Work on “GAGCGGACAGCAGCUUCCUAUAUCUCGUACNNNNNNNNNNNNNNNNNNNNNNNNNGUUUUAGAGUCAUGUUAAAGAACAUAGCAAGUUAAAAUAAGGUUUUAACCGUAAUCAACUGUAAAGUGGCGCUGUUUCGGCGCUUUUUUUGUUU / GAGCGGACAGCAGCTTCCTATATCTCGTAC / GTACGAGATATAGGAAGCTGCTGTCCGCTC [Sequence 1 sgRNA for APG05459.1 ; Sequence 1 target]” yielded an activity of 67 % cleaved.

Same assay, conditions: incompatible PAM
In the case of “GAGCGGACAGCAGCUUCCUAUAUCUCGUACNNNNNNNNNNNNNNNNNNNNNNNNNGUUUUAGAGUCAUGUUAAAGAACAUAGCAAGUUAAAAUAAGGUUUUAACCGUAAUCAACUGUAAAGUGGCGCUGUUUCGGCGCUUUUUUUGUUU / GAGCGGACAGCAGCTTCCTATATCTCGTAC / GTACGAGATATAGGAAGCTGCTGTCCGCTC”, the activity is reported as 0 % cleaved.

Each sequence was assayed on T2, APG08290.1 (Bacillus sp.) (assay: cleavage_in_vitro). Conditions: not given.
T2 sequence: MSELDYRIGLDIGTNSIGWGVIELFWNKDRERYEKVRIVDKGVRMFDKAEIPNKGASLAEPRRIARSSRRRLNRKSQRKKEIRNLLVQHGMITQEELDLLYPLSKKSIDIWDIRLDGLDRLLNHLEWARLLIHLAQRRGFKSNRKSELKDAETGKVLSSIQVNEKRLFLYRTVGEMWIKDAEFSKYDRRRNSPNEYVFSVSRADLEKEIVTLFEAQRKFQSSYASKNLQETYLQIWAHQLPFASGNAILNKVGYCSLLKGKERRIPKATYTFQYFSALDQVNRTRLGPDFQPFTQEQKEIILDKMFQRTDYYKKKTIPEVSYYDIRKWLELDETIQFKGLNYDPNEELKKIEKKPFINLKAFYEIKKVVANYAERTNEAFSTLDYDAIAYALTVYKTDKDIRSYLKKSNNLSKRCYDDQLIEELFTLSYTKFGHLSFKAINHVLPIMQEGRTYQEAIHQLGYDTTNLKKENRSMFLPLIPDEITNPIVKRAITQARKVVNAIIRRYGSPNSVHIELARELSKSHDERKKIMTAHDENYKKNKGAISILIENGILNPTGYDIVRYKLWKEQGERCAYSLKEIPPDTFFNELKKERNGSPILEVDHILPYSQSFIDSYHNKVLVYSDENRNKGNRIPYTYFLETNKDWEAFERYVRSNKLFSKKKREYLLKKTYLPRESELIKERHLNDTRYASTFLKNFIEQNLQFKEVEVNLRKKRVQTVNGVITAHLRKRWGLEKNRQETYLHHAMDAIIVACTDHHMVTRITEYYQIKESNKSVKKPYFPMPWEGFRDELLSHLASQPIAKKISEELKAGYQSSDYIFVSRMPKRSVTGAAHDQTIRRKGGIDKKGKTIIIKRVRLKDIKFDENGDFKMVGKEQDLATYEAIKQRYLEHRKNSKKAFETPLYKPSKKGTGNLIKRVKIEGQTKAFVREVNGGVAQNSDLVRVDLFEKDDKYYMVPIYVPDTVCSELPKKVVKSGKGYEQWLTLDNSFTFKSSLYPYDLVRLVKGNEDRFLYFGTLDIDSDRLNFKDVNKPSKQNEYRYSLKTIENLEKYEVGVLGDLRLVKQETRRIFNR
In the case of “GAGCGGACAGCAGCUUCCUAUAUCUCGUACNNNNNNNNNNNNNNNNNNNNNNNNNGUCAUAGUUCCAUGAAAGCCAAAAGUGGCUUUGAUGUUUCUAUGAUAAGGGUUUCGGCCCGUGGCGUCGGGGAUCGCCUGCCCAUUCCGAUGGGCUUCUCCCCAUUUAUU / GAGCGGACAGCAGCTTCCTATATCTCGTAG / CTACGAGATATAGGAAGCTGCTGTCCGCTC [Sequence 1 sgRNA for APG08290.1 ; target mismatch 1]”, the activity is reported as 0 % cleaved. “GAGCGGACAGCAGCUUCCUAUAUCUCGUACNNNNNNNNNNNNNNNNNNNNNNNNNGUCAUAGUUCCAUGAAAGCCAAAAGUGGCUUUGAUGUUUCUAUGAUAAGGGUUUCGGCCCGUGGCGUCGGGGAUCGCCUGCCCAUUCCGAUGGGCUUCUCCCCAUUUAUU / GAGCGGACAGCAGCTTCCTATATCTGGTAC / GTACCAGATATAGGAAGCTGCTGTCCGCTC [Sequence 1 sgRNA for APG08290.1 ; target mismatch 5]” gave an activity of 0 % cleaved.

Same assay, conditions: PAM NNRNCC; NTS cut 4, TS cut 3, 1 nt 5' overhang (Table 3)
Work on “GAGCGGACAGCAGCUUCCUAUAUCUCGUACNNNNNNNNNNNNNNNNNNNNNNNNNGUCAUAGUUCCAUGAAAGCCAAAAGUGGCUUUGAUGUUUCUAUGAUAAGGGUUUCGGCCCGUGGCGUCGGGGAUCGCCUGCCCAUUCCGAUGGGCUUCUCCCCAUUUAUU / GAGCGGACAGCAGCTTCCTATATCTCGTAC / GTACGAGATATAGGAAGCTGCTGTCCGCTC [Sequence 1 sgRNA for APG08290.1 ; Sequence 1 target]” yielded an activity of 95 % cleaved.
